Assay results: article PMC5063714 (Journal of medicinal chemistry, 2016)
Read-outs that look alike come from different tables or passages of the source. Square brackets hold non-standard residues; d marks the D form. Side chains are listed from the residue outwards. Ends that are not written are not given here. * marks the point of attachment. pyrrolidinyl = lysine with its side-chain amine cyclized into a pyrrolidine ring; azepanyl = lysine epsilon-N closed into a 7-membered azepane ring; piperidinyl = lysine epsilon-N closed into a piperidine ring; Lys(Me3) = C[N+](C)(C)CCCC[C@H](N)C(=O)O; NMeF = CN[C@@H](Cc1ccccc1)C(=O)O; dicyclobutyl = not defined here; diethyl = not defined here; Cyclopentyl = C1CCC(*)C1; cyclohexyl = C1CCC(*)CC1; Bz = O=C(c1ccccc1)*; iPr = CC(C)*

Columns and labels:
Assay in all cases: AlphaScreen or HTRF
chromodomain of CBX5 [1] = target: chromodomain of CBX5 (human)
chromodomain of CBX5 [2] = target: chromodomain of CBX5 (human); remark: listed apart in the source
chromodomain of CBX4 [3] = target: T1, chromodomain of CBX4 (human, UniProt O00257-1 8-65)
T1 sequence (looked up): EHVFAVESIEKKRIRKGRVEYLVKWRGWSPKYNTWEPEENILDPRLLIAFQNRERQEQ

chromodomain of CBX7 [4] = target: T2, chromodomain of CBX7 (human, UniProt O95931 8-62)
T2 sequence (looked up): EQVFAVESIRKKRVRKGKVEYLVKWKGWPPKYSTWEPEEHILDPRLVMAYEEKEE

chromodomain of CDYL2 [5] = target: T3, chromodomain of CDYL2 (human, UniProt Q8N8U2 1-75)
T3 sequence (looked up): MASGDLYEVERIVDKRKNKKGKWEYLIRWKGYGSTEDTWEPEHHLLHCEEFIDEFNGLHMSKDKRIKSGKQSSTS

chromodomain of CBX5 [6] = target: chromodomain of CBX5 (human); remark: listed apart in the source
chromodomain of CBX4 [7] = target: T1, chromodomain of CBX4; remark: listed apart in the source
chromodomain of CBX7 [8] = target: T2, chromodomain of CBX7; remark: listed apart in the source
chromodomain of CDYL2 [9] = target: T3, chromodomain of CDYL2; remark: listed apart in the source
chromodomain of CBX5 [10] = target: chromodomain of CBX5 (human); remark: listed apart in the source

Sequence of chromodomain of CBX5 (human) (Q9UN86 18-75): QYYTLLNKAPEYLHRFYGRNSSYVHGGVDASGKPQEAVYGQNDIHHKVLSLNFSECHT

Q: How did the IC50 (chromodomain of CBX5 [1]) turn out when Bz-GFALK(norbornyl)S-OMe [compound 15] was run?
A: > 60000 nM

Q: Which IC50 (chromodomain of CBX5 [2]) does the source give for {4‑tBu‑Bz}-FALK(diethyl)S-NMe2 (reading uncertain) [compound 45] here?
A: > 60000 nM

Q: And the IC50 (chromodomain of CBX4 [3])?
A: 140 nM

Q: And the IC50 (chromodomain of CBX7 [4])?
A: 47 nM

Q: What about the IC50 (chromodomain of CDYL2 [5]) of the same binder?
A: 360 nM

Q: With {4‑Me‑Bz}-FALK(diethyl)S-OMe (reading uncertain) [compound 30] as the binder, how does the IC50 (chromodomain of CBX5 [6]) read?
A: 21000 nM

Q: What about the IC50 (chromodomain of CBX4 [7]) of the same binder?
A: 770 nM

Q: And the IC50 (chromodomain of CBX7 [8])?
A: 220 nM

Q: What about the IC50 (chromodomain of CDYL2 [9]) of the same binder?
A: 280 nM

Q: For Bz-GFALK(cyclohexyl)S-OMe [compound 14], which IC50 (chromodomain of CBX5 [1]) is on record?
A: > 60000 nM

Q: Bz-GFAL[Lys(Me3)]S-OMe [compound 6] was tested. Which IC50 (chromodomain of CBX5 [10]) did it give?
A: > 60000 nM

Q: Which IC50 (chromodomain of CBX5 [1]) does the source give for Bz-GFALK(dicyclobutyl)S-OMe (reading uncertain) [compound 22] here?
A: > 60000 nM

Q: With {4‑tBu‑Bz}-F(CH2NH2)ALK(diethyl)S-OMe (reading uncertain) [compound 47] as the binder, how does the IC50 (chromodomain of CBX5 [2]) read?
A: 53000 nM

Q: What about the IC50 (chromodomain of CBX4 [3]) of the same binder?
A: 170 nM

Q: And the IC50 (chromodomain of CBX7 [4])?
A: 63 nM

Q: And the IC50 (chromodomain of CDYL2 [5])?
A: 75 nM

Q: Which results are given for {3‑Me‑Bz}-FALK(diethyl)S-OMe (reading uncertain) [compound 29]?
A: IC50 (chromodomain of CBX5 [6]): > 60000 nM; IC50 (chromodomain of CBX4 [7]): 2700 nM; IC50 (chromodomain of CBX7 [8]): 740 nM; IC50 (chromodomain of CDYL2 [9]): 340 nM

Q: Bz-FALK(diethyl)S-OMe (reading uncertain) [compound 27] was tested. Which IC50 (chromodomain of CBX5 [6]) did it give?
A: 6900 nM

Q: What about the IC50 (chromodomain of CBX4 [7]) of the same binder?
A: 3000 nM

Q: And the IC50 (chromodomain of CBX7 [8])?
A: 1200 nM

Q: And the IC50 (chromodomain of CDYL2 [9])?
A: 340 nM

B1: compound 10 (peptide)
peptide: GFALKS
modifications: N-terminal benzoyl (Bz) cap; N-methylated glycine amide (N(me)Gly); trimethyl-lysine (Kme3); C-terminal methyl ester (Ser-OMe)
Q: With B1 as the binder, how does the IC50 (chromodomain of CBX5 [10]) read?
A: > 60000 nM

Q: What does the source list for {4‑CF3‑Bz}-FALK(diethyl)S-OMe (reading uncertain) [compound 34]?
A: IC50 (chromodomain of CBX5 [6]): 33000 nM; IC50 (chromodomain of CBX4 [7]): 480 nM; IC50 (chromodomain of CBX7 [8]): 230 nM; IC50 (chromodomain of CDYL2 [9]): 130 nM

Q: With {2‑Me‑Bz}-FALK(diethyl)S-OMe (reading uncertain) [compound 28] as the binder, how does the IC50 (chromodomain of CBX5 [6]) read?
A: > 60000 nM

Q: What about the IC50 (chromodomain of CBX4 [7]) of the same binder?
A: 58000 nM

Q: What about the IC50 (chromodomain of CBX7 [8]) of the same binder?
A: 25000 nM

Q: What about the IC50 (chromodomain of CDYL2 [9]) of the same binder?
A: 560 nM

Q: For Bz-GFALK(adamantyl)S-OMe [compound 16], which IC50 (chromodomain of CBX5 [1]) is on record?
A: > 60000 nM

Q: With Bz-GFALK(pyrrolidinyl)S-OMe [compound 19] as the binder, how does the IC50 (chromodomain of CBX5 [1]) read?
A: > 60000 nM

Q: Which IC50 (chromodomain of CBX5 [1]) does the source give for Bz-GFALK(Cyclopentyl)S-OMe [compound 13] here?
A: > 60000 nM

Q: Bz-GFALK(piperidinyl)S-OMe [compound 20] was tested. Which IC50 (chromodomain of CBX5 [1]) did it give?
A: > 60000 nM

Q: How did the IC50 (chromodomain of CBX5 [1]) turn out when Bz-GFALK(azepanyl)S-OMe [compound 21] was run?
A: > 60000 nM

Q: Bz-GFALK(diethyl)S-OMe (reading uncertain) [compound 18] was tested. Which IC50 (chromodomain of CBX5 [1]) did it give?
A: > 60000 nM

Q: How did the IC50 (chromodomain of CBX5 [10]) turn out when Bz-GFALKS-OMe (not fully specified (residues 3, 5)) [compound 8] was run?
A: > 60000 nM

Q: How did the IC50 (chromodomain of CBX5 [1]) turn out when Bz-GFALKS-OMe [compound 11] was run?
A: > 60000 nM

Q: With {4‑tBu‑Bz}-FAL[Lys(Me3)]S-OMe [compound 39] as the binder, how does the IC50 (chromodomain of CBX5 [6]) read?
A: > 60000 nM

Q: And the IC50 (chromodomain of CDYL2 [9])?
A: 110 nM

Q: With {4‑Et‑Bz}-FALK(diethyl)S-OMe (reading uncertain) [compound 31] as the binder, how does the IC50 (chromodomain of CBX5 [6]) read?
A: 14000 nM

Q: And the IC50 (chromodomain of CBX4 [7])?
A: 190 nM

Q: What about the IC50 (chromodomain of CBX7 [8]) of the same binder?
A: 81 nM

Q: What about the IC50 (chromodomain of CDYL2 [9]) of the same binder?
A: 100 nM

B2: compound 3 (peptide)
peptide: Bz-Ala-Leu-[Lys(Me3)]-NHMe
SMILES: CNC(=O)[C@H](CCCC[N+](C)(C)C)NC(=O)[C@H](CC(C)C)NC(=O)[C@H](C)NC(=O)c1ccccc1
Q: Which IC50 (chromodomain of CBX5 [10]) does the source give for B2 here?
A: > 60000 nM

Q: Which IC50 (chromodomain of CBX5 [1]) does the source give for Bz-GFALK(tetramethylguanidino)S-OMe [compound 24] here?
A: > 60000 nM

Q: For Bz-GFALK(dimethyl)S-OMe [compound 17], which IC50 (chromodomain of CBX5 [1]) is on record?
A: > 60000 nM

Q: Bz-GFALK([norbornyl-Ac])S-OMe [compound 23] was tested. Which IC50 (chromodomain of CBX5 [1]) did it give?
A: > 60000 nM

Q: Which IC50 (chromodomain of CBX5 [6]) does the source give for {t‑butylbenzyl}-FALK(diethyl)S-OMe (reading uncertain) [compound 36] here?
A: > 60000 nM

Q: And the IC50 (chromodomain of CBX4 [7])?
A: 9700 nM

Q: And the IC50 (chromodomain of CBX7 [8])?
A: 4400 nM

Q: What about the IC50 (chromodomain of CDYL2 [9]) of the same binder?
A: 200 nM

Q: With {4‑iPr‑Bz}-FALK(diethyl)S-OMe (reading uncertain) [compound 32] as the binder, how does the IC50 (chromodomain of CBX5 [6]) read?
A: 38000 nM

Q: And the IC50 (chromodomain of CBX4 [7])?
A: 160 nM

Q: What about the IC50 (chromodomain of CBX7 [8]) of the same binder?
A: 61 nM

Q: What about the IC50 (chromodomain of CDYL2 [9]) of the same binder?
A: 100 nM

B3: compound 1 (UNC3866) (peptide)
peptide: FALKS
modifications: N-terminal para-t-butyl benzoyl cap; diethyl-lysine in lieu of Kme3; C-terminal methyl ester
Q: How did the IC50 (chromodomain of CBX5 [6]) turn out when B3 was run?
A: > 60000 nM

Q: And the IC50 (chromodomain of CBX4 [7])?
A: 83 nM

Q: What about the IC50 (chromodomain of CBX7 [8]) of the same binder?
A: 37 nM

Q: What about the IC50 (chromodomain of CDYL2 [9]) of the same binder?
A: 140 nM

Q: For Bz-G[NMeF]AL[Lys(Me3)]S-OMe [compound 9], which IC50 (chromodomain of CBX5 [10]) is on record?
A: > 60000 nM

Q: How did the IC50 (chromodomain of CBX5 [2]) turn out when {4‑tBu‑Bz}-F(CH2NHBoc)ALK(diethyl)S-OMe (reading uncertain) [compound 48] was run?
A: 44000 nM

Q: What about the IC50 (chromodomain of CBX4 [3]) of the same binder?
A: 98 nM

Q: What about the IC50 (chromodomain of CBX7 [4]) of the same binder?
A: 56 nM

Q: And the IC50 (chromodomain of CDYL2 [5])?
A: 160 nM

Q: For {4‑CO2Me‑Bz}-FALK(diethyl)S-OMe (reading uncertain) [compound 33], which IC50 (chromodomain of CBX5 [6]) is on record?
A: 26000 nM

Q: And the IC50 (chromodomain of CBX4 [7])?
A: 1200 nM

Q: And the IC50 (chromodomain of CBX7 [8])?
A: 570 nM

Q: And the IC50 (chromodomain of CDYL2 [9])?
A: 110 nM

Q: How did the IC50 (chromodomain of CBX5 [1]) turn out when Bz-GFALK(iPr)S-OMe [compound 12] was run?
A: > 60000 nM

Q: {4‑tBu‑Bz}-FALK(diethyl)S-OH (reading uncertain) [compound 44] was tested. Which IC50 (chromodomain of CBX5 [2]) did it give?
A: > 60000 nM

Q: And the IC50 (chromodomain of CBX4 [3])?
A: 240 nM

Q: And the IC50 (chromodomain of CBX7 [4])?
A: 130 nM

Q: What about the IC50 (chromodomain of CDYL2 [5]) of the same binder?
A: 740 nM

Q: {4‑tBu‑Bz}-FALK(diethyl)S (reading uncertain; also: C-terminal carbonyl removed entirely (R3 = -H)) [compound 46] was tested. Which IC50 (chromodomain of CBX5 [2]) did it give?
A: > 60000 nM

Q: And the IC50 (chromodomain of CBX4 [3])?
A: 200 nM

Q: What about the IC50 (chromodomain of CBX7 [4]) of the same binder?
A: 75 nM

Q: What about the IC50 (chromodomain of CDYL2 [5]) of the same binder?
A: 410 nM
